In US20240293465A1:

B1: bovine FXa (activated bovine clotting factor X) (protein)
chain: ANSFLEEVKQGNLERECLEEACSLEEAREVFEDAEQTDEFWSKYKDGDQCEGHPCLNQGHCKDGIGDYTCTCAEGFEGKNCEFSTREICSLDNGGCDQFCREERSEVRCSCAHGYVLGDDSKSCVSTERFPCGKFTQGRSRRWAIHTSEDALDASELEHYDPADLSPTESSLDLLGLNRTEPSAGEDGSQVVRIVGGRDCAEGECPWQALLVNEENEGFCGGTILNEFYVLTAAHCLHQAKRFTVRVGDRNTEQEEGNEMAHEVEMTVKHSRFVKETYDFDIAVLRLKTPIRFRRNVAPACLPEKDWAEATLMTQKTGIVSGFGRTHEKGRLSSTLKMLEVPYVDRSTCKLSSSFTITPNMFCAGYDTQPEDACQGDSGGPHVTRFKDTYFVTGIVSWGEGCARKGKFGVYTKVSNFLKWIDKIMKARAGAAGSRGHSEAPATWTVPPPLPL

Legend:
human C3 = human C3 (UniProt P01024)

Sequence of human C3, P01024 (P01024 whole entry, looked up): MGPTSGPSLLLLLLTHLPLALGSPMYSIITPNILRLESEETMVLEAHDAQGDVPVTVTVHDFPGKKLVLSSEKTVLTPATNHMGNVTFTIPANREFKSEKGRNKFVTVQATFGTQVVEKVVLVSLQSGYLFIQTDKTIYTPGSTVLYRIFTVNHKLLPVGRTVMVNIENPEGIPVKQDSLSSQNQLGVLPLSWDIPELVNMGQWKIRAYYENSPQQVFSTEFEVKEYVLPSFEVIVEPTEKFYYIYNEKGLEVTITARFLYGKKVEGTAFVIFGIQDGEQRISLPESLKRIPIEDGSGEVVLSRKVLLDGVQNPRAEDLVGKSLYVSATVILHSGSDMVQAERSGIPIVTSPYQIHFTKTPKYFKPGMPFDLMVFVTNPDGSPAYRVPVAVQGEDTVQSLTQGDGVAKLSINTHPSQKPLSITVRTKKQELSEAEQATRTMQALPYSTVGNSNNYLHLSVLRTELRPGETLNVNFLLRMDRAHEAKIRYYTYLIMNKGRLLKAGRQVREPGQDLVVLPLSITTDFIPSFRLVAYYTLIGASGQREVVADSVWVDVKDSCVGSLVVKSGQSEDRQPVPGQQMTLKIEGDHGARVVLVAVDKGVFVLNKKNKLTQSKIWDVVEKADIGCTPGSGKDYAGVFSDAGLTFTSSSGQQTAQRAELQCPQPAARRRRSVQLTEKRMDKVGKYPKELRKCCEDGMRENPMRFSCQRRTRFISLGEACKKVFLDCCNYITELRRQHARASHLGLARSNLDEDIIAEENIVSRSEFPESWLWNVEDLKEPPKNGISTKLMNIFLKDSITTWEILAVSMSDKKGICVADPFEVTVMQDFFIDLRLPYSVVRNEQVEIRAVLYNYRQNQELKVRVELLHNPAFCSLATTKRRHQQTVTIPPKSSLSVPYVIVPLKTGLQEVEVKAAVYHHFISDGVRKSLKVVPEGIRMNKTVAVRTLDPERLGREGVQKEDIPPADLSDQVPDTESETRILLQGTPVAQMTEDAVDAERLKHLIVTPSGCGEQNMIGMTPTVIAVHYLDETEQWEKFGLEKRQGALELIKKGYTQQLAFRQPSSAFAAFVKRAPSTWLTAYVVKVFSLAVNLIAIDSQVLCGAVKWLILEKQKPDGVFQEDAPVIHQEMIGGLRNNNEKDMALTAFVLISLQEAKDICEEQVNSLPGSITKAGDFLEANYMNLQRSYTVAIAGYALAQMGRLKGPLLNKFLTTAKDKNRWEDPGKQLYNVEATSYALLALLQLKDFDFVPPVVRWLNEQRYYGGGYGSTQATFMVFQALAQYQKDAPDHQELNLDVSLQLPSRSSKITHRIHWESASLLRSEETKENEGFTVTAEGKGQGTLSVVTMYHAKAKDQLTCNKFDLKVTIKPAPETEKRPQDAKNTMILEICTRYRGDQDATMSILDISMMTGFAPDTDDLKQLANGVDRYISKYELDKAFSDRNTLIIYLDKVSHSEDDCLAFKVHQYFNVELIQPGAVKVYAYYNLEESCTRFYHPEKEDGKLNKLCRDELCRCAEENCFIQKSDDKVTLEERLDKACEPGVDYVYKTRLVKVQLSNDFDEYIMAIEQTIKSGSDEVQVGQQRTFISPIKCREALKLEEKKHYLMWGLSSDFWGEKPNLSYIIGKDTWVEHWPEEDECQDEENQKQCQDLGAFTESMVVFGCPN

Molecule | cleavage of the C3 alpha chain to the a' chain (Western blot) (human C3) | cleavage of the C3 alpha chain to the a' chain (Western blot) (human C3, P01024)
human FCXIa (activated form of human clotting factor XI) | can cleave C3 in vitro in the absence of any complement proteases | 
human FXa (activated form of human clotting factor X) | can cleave C3 in vitro in the absence of any complement proteases | 
B1 |  | can cleave C3 in vitro in the absence of any complement proteases
